# B1: recombinant protocadherin-15 (PCDH15), Mus musculus, His-tagged construct co-expressed with LHFPL5 (natural protein)
# chain: not shown
# notes: Synthesised by Genscript, cloned into pEG BacMam; also called recombinant PCDH15; His-tagged PCDH15; source: HEK293 tsa201 cells, BacMam co-infection with LHFPL5, purified as a complex (Strep-Tactin, TALON, SEC) in digitonin
# B2: native protocadherin-15 (PCDH15) from mouse cochlea or utricle (natural protein)
# chain: not shown
# notes: protocadherin-15, mouse, endogenous in cochlea and utricle; also called native PCDH15; source: endogenous, cochlea or utricle of post-natal day 6 mice, detergent supernatant (1% C12M, 0.2% CHS)
# Assays:
# [1] = target: the molecule itself; test: single molecule pull-down (SiMPull), photobleaching step counting; purified recombinant PCDH15/LHFPL5 complex captured by mAb 8D1; labelled in separate experiments with 39G7 Fab-GFP or anti-LHFPL5 Fab-GFP; bleaching steps counted
# [2] = target: the molecule itself; test: single molecule pull-down (SiMPull), photobleaching step counting; native complexes from mouse cochlea supernatant captured by mAb 8D1; labelled with 39G7 Fab-GFP or anti-LHFPL5 Fab-GFP; bleaching steps counted
Protein,stoichiometry N [1],stoichiometry N [2]
B1,2,–
B2,–,2

# Reference: article doi:10.1101/2023.12.11.571162, “Single molecule studies of the native hair cell mechanosensory transduction complex” (bioRxiv, 2023)
